The test system of one assay is Karpas 299. Put plainly: Flow cytometry binding to endogenous cell line Karpas 299. Also noted: key to binding to Karpas 299 by flow cytometry: (−): No binding; (+): Weak binding; (++): Moderate binding; (+++): Strong binding. Type of assay: cell-based, human. As to conditions: primary antibody 1 ug/ml. How it is done: (§1) Staining for flow cytometry was performed in 1× cold PBS with 0.5% BSA. Primary antibodies (1 ug/ml) were incubated with live cells on ice for 30 minutes, after a brief wash, cells were incubated with Alexa Fluro® 488-conjugated anti-human IgG secondary antibody @1:1000 (709-546-149, Jackson ImmunoResearch). Acquisition of the data was performed on a MACSQuant® Flow Cytometers (Miltenyi Biotec) and analyzed with FlowJo software.
(§2) Over 1,000 hits were identified that bind strongly to CHO-human IL1RAP, but not parental CHO cells. 68 clones were selected for molecular cloning. Based on unique CDR3 sequences from the heavy chain variable domain, 35 antibodies from 13 families were confirmed by binding in IL1RAP positive cell lines EOL1 and Karpas 299 (see Table 8) by flow cytometry (MACSQuant® www.miltenybiotec.com).

A further assay deals with MOLT3. Put plainly: Flow cytometry binding to endogenous cell line MOLT3. The format is cell-based. On the set-up: key: (−): No binding; (+): Weak binding; (++): Moderate binding; (+++): Strong binding. As to conditions: primary antibody 1 ug/ml. On the procedure: as §1
Background: In flow cytometry, cells or beads pass a laser one at a time.

The test system of another assay is IL-1β signaling. Kind of assay: IL-1 signaling reporter cell assay (HEK-Blue IL-1β cells), IL-1β. The format is cell-based. To be noted: HEK-Blue IL-1β cells, antibody 1-10 pg/ml, IL-1β 0.5 ng/ml. How it is done: (§3) HEK-Blue IL-1β cells (Invivogen, CA) were harvested and plated in technical duplicates at a density of 50,000 cells per well in a 96-well plate. IL1RAP antibodies, or a corresponding human IgG1 control antibody was added to the wells in a concentration range of […]. After incubating cells with antibodies for 30 minutes, IL-1β was added to a final concentration of 0.5 ng/ml, and the plate was incubated overnight. To examine whether any of the antibodies were able to induce IL-1R activation in the absence of IL-1β, samples were incubated with 10 μg/mL antibody without addition of the ligand. The following day, substrate was added to the supernatants, and samples were analyzed for absorbance at 620 nm.

For another assay, the system named is EOL-1. Put plainly: Flow cytometry binding to endogenous cell line EOL-1. Type of assay: cell-based, human. Also noted: key to binding to EOL-1 by flow cytometry: (−): No binding; (+): Weak binding; (++): Moderate binding; (+++): Strong binding. To be noted: primary antibody 1 ug/ml. On the procedure: as §1, §2
The next assay has as its system IL-33 signaling. Kind of assay: IL-33 signaling reporter cell assay (HEK-Blue IL-33 cells). As to conditions: antibody 1-10 μg/ml, IL-33 0.5 ng/ml. The format is cell-based. How it is done: FIGS. 7A and 7B show blockage of IL-33 signaling by anti-IL1RAP antibodies. HEK-Blue IL-33 cells (Invivogen, CA) were harvested and plated in technical duplicates at a density of 50,000 cells per well in a 96-well plate. Antibodies, or a corresponding human IgG1 control antibody, was added to the wells in a serial dilution starting at 10 μg/ml (FIG. 7A), or a concentration of 1 and 10 μg/ml (FIG. 7B). After incubating cells with antibodies for 30 minutes, IL-33 was added to a final concentration of 0.5 ng/ml, and the plate was incubated overnight. 24 hours later, substrate was added to the supernatants, and samples were analyzed for absorbance at 620 nm. CBIgG1 (anti-hen egg lysozyme antibody, CrownBio™) was included as a negative control.
as §3, with “IL-33” for “IL-1β”, “plate.” for “plate. IL1RAP”, “ST2” for “IL-1R”, “IL-33,” for “IL-1β,”

The target of another assay is T1, recombinant human IL1RAP (Homo sapiens, UniProt Q9NPH3).
T1 construct: MBP-IL1RAP(S21-T367)-; 8xHis (C); made in house; host or cells: CHO (ExpiCHO transient expression)
Kind of assay: Binding competition binning on Octet. As to conditions: Protein A biosensors. On the procedure:
Binding Competition binning: Binding competition among different antibodies was determined using a real-time, interferometry assay on an Octet Red™ instrument with Protein A-conjugated biosensors. To assess whether two antibodies competed for binding to a recombinant IL1RAP protein, the assay was performed as follows. Protein A biosensors were first submerged into wells containing 10 ug/mL of individual monoclonal antibodies for 5 minutes. Following the capture step, the biosensors were dipped briefly (15 seconds) into buffer and then any unoccupied sites on the biosensor were saturated by submerging them for 5 minutes into wells containing 100 ug/mL of an irrelevant monoclonal antibody. The Octet™ biosensors were then dipped briefly (15 seconds) in buffer before immersion for 1 minute into wells containing recombinant IL1RAP. The biosensors were dipped briefly (15 seconds) in buffer before immersion for 1 minute into wells containing a second recombinant antibody.
For the control case where the second antibody was the same as the first, there was no increase in signal, because there was no additional binding to the recombinant target.
For the control case where buffer was used instead of the first antibody, no recombinant target bound the non-quenching antibody on the biosensor and no second antibody bound the biosensor.
Selected antibodies were evaluated in pairs for their ability to simultaneously bind recombinant human IL1RAP. The analysis was performed by Octet™ loaded with Protein A Biosensors. A total of five different bins were determined as follows.
In general terms: Biolayer interferometry detects binding as a change in optical thickness at a sensor tip.

In another assay the target is T2, mouse IL1RAP (Mus musculus, UniProt Q61730).
T2 construct: Met1-Val570; host or cells: HEK-293T
T2 sequence (Q61730 21-570): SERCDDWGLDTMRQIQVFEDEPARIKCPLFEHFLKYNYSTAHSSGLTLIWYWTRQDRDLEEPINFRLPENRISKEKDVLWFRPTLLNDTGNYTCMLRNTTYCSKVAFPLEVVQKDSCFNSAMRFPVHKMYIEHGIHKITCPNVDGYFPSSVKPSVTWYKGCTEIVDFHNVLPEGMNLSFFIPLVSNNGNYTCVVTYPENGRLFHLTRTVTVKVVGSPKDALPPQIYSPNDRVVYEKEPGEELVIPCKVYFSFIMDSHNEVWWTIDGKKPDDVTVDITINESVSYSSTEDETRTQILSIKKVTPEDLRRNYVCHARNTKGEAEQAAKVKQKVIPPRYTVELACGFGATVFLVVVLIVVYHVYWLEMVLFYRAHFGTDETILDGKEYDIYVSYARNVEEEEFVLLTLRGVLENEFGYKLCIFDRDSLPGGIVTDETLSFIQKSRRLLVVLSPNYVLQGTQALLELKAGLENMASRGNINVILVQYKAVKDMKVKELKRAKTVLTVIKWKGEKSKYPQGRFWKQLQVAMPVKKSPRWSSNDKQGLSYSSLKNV
Put plainly: Flow cytometry binding to 293 cells expressing mouse IL1RAP. Type of assay: cell-based. To be noted: 1 ug/ml. How it is done: (§4) 293T cell line was purchased from American Type Culture Collection (ATCC). 293T cells expressing human, Macaca fascicularis, rat, and mouse IL1RAP were maintained in DMEM medium (Invitrogen) with 10% fetal bovine serum (FBS) (Sigma) in the presence of 2 ug/ml puromycin (Invitrogen).
as §1

The target of a further assay is T3, rat IL1RAP (Rattus norvegicus, UniProt Q63621).
T3 construct: Met1-Val570; host or cells: HEK-293T
T3 sequence (Q63621 21-570): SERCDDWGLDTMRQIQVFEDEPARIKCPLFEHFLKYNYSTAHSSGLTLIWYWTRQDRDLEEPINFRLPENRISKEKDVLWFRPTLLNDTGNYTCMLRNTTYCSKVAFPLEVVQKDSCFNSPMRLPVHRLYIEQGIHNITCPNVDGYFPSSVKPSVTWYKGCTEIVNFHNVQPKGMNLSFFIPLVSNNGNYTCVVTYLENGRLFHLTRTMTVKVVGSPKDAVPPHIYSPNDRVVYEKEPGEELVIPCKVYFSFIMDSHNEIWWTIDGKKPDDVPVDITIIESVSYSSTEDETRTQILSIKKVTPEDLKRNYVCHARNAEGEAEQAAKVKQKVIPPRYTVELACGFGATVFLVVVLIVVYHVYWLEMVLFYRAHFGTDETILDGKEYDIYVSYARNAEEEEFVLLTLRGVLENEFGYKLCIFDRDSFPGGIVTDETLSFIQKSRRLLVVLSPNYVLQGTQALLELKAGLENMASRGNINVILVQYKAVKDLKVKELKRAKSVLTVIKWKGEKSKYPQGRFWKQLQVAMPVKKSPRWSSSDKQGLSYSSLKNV
Put plainly: Flow cytometry binding to 293 cells expressing rat IL1RAP. The format is cell-based. To be noted: 1 ug/ml. On the procedure:
as §4, §1

The test system of the next assay is DMS79. Kind of assay: Flow cytometry binding to endogenous cell line DMS79. Type of assay: cell-based. Also noted: key to binding to DMS79 by flow cytometry: (−): No binding; (+): Weak binding; (++): Moderate binding; (+++): Strong binding. As to conditions: primary antibody 1 ug/ml. How it is done:
as §1

Experimental findings from US20260008856A1, “METHODS OF TREATING DISEASE USING ANTI-IL1RAP ANTIBODIES AND ANTIBODY DRUG CONJUGATES” (Bluefin Biomedicine, Inc., priority 2022, published 2026) are described below.

Substitutions are numbered along the chain they refer to.

B1: 36A10_21B6: human anti-IL1RAP antibody, VH SEQ ID NO: 48, VL SEQ ID NO: 52 (antibody, V domains shown)
VH: QGQVVESGGGVVQPGRSLRLSCAASGFTFSSYTLHWVRQAPGKGLEWVAVIWYDGSNKYYVDSVKGRFTISRDNSKNTLYLQMNSLRAEDTAVYYCAREYGSGSYYNVYYGMDVWGQGTTVTLSS
VL: DIVMTQSPLSLPVTPGEPASISCRSSQSLLHSNGYNYLDWYLQKPGQSPHLLIYLASNRASGVPDRFSGSGSGTDFTLKISRVEAEDVGFYYCMQTLQIPLTFGGGTKVEIK
Regarding B1, the “binding to Karpas 299 by flow cytometry” value in the assay on Karpas 299 is given as “(++)”. The “binding to MOLT3 by flow cytometry” value in the assay on MOLT3 was “(+)”. The “inhibition of IL1R1 / IL-1 signaling” value in the assay with IL-1β signaling is given as “potent inhibition”. The “binding to EOL-1 by flow cytometry” value in the assay on EOL-1 is “(+++)”. In addition, the “inhibition of IL-33 signaling” value in the assay on IL-33 signaling was “partially inhibit”. Moreover, in the assay with recombinant human IL1RAP, the “competition for binding, bin (3)” value is “competed with each other” and the “competition for binding, bin (4)” value is given as “competed with each other”.

B2: 24G3_17C5: human anti-IL1RAP antibody, VH SEQ ID NO: 90, VL SEQ ID NO: 93 (antibody, V domains shown)
VH: EVQLLESGGGLVQRGGSLRLSCAASGFTFSSYAMSWVRQAPGKGLEWVSSISGSGDSTNYADSVKGRFTISRDNSKNTLHLQMNSLRAEDTAVYYCVRDYYYGMDVWGHGTTVTVSS
VL: EIVLTQSPATLSLSPGERATLSCRASQSVNSYLAWYQQKPGQAPRLLIYDASNRATGIPARFSGSGSGTDFTLTISSLEPEDFAVYYCQQRSYWPITFGQGTRLEIK
Regarding B2, the “binding to Karpas 299 by flow cytometry” value with Karpas 299 is on record as “(++)”. For the same molecule, the “binding to 293 cells expressing mouse IL1RAP” value in the assay with mouse IL1RAP was “bind weakly”. In addition, in the assay with rat IL1RAP, the “binding to 293 cells expressing rat IL1RAP” value is on record as “bind”. Besides, the “binding to EOL-1 by flow cytometry” value in the assay on EOL-1 is given as “(++)”. Moreover, the “competition for binding, bin (1)” value in the assay with recombinant human IL1RAP was “competed with each other”.

B3: 5D12_18A4: human anti-IL1RAP antibody, VH SEQ ID NO: 163, VL SEQ ID NO: 167 (antibody, V domains shown)
VH: QVQLQESGPGLVKPLGTLSLTCAVSGGSISNSNWWSWVRQPPGKGLEWIGEIYHSGSTNYNPSLKSRVTIALDWSKNQFSLQLRSVTAADTAVYYCARYGSGPFGGDCWGQGTLVTVSS
VL: DIQLTQSPSFLSASVGDRVTISCRASQGISSYLAWYQQKPGKAPKLLIYAASTLQGGVPSRFSGSGSGTTFTLTISSLQPEDFATYYCQQLNTYPFTFGPGTKLEIK
In the case of B3, in the assay with Karpas 299, the “binding to Karpas 299 by flow cytometry” value was “(++)”. Also, the “binding to 293 cells expressing mouse IL1RAP” value with mouse IL1RAP is given as “bind weakly”. Besides, the “binding to EOL-1 by flow cytometry” value in the assay on EOL-1 is “(+++)”. Moreover, the “competition for binding, bin (1)” value with recombinant human IL1RAP was “competed with each other”.

B4: 38G11_28A2: human anti-IL1RAP antibody, VH SEQ ID NO: 151, VL SEQ ID NO: 154 (antibody, V domains shown)
VH: EVQLVESGGGLVQPGGSLRLSCAASGFTFSSYWMSWVRQAPGKGLEWVANIKQDGSEKHYVDSVKGRFTISRDNAKNSLYLQMNSLRAEDTAVYYCAREGYFGSGYFDYWGQGTLVTVSS
VL: B3 VL with S22T, G56S, T70E, L91Y, N92S, T93F, P95S, F96H, P100Q
As for B4, the “binding to Karpas 299 by flow cytometry” value in the assay with Karpas 299 was “(++)”. In the assay on EOL-1, the “binding to EOL-1 by flow cytometry” value is recorded as “(++)”. In addition, the “binding to DMS79 by flow cytometry” value in the assay on DMS79 is “(−)”.

B5: 34C11_21B2: human anti-IL1RAP antibody, VH SEQ ID NO: 40, VL SEQ ID NO: 44 (antibody, V domains shown)
VH: B4 VH with L4V, S30R, K58R, N77T, N84S
VL: DIQMTQSPSTLSASVGDRVIITCRASQSISRGLAWYQQKPGKAPKLLIYKASNLESGVPSRFSGSGSGTEFTLTISSLQPDDFAAYYCQQYSYYSHTFGQGTKLEIK
B5: the “binding to Karpas 299 by flow cytometry” value in the assay on Karpas 299 was “(+++)”. Also, the “binding to MOLT3 by flow cytometry” value in the assay with MOLT3 is listed as “(+)”. Further, the “binding to 293 cells expressing rat IL1RAP” value with rat IL1RAP is listed as “bind”. Moreover, in the assay with EOL-1, the “binding to EOL-1 by flow cytometry” value is given as “(+++)”. In addition, the “competition for binding, bin (1)” value with recombinant human IL1RAP is recorded as “competed with each other”.

B6: 39G1_21C4: human anti-IL1RAP antibody, VH SEQ ID NO: 56, VL SEQ ID NO: 60 (antibody, V domains shown)
VH: QVQLQESGPGLVKPSETLSLTCAVSGYSASGVYYWGWIRQPPGKGLEWIGNIYHSGSTYYNPSLERRVSISLDTSKNHFSLRLNFVTAADTAVYYCARDRFDAFDIWGQGTMVTVSS
VL: EIVMTQSPATLSVSPGERATLSCRASQSINNILAWYQQKPGQAPRLLIYGASTRATGIPARFSGSGSGTEFTLTISSLQSEDFAVYYCQQYNNWPLTFGGGTKVEIK
Turning to B6, in the assay with MOLT3, the “binding to MOLT3 by flow cytometry” value is given as “(+)”. Also, the “inhibition of IL1R1 / IL-1 signaling” value in the assay with IL-1β signaling is given as “do not inhibit”. In addition, the “binding to 293 cells expressing mouse IL1RAP” value in the assay with mouse IL1RAP was “bind weakly”. Moreover, in the assay on EOL-1, the “binding to EOL-1 by flow cytometry” value was “(+++)”. Moreover, the “inhibition of IL-33 signaling” value in the assay with IL-33 signaling is “do not inhibit”. The “competition for binding, bin (1)” value with recombinant human IL1RAP is reported as “competed with each other”.
